From patent publication JP2016161390A (dated 2016)
Values belong to the binder of their own block, whether it stands above or below them.

Columns and labels:
[1] = target: T1, ヒトFRα(FRα発現KB細胞) (human, UniProt P15328 25-234); test: Hybridoma screening on cells expressing FRβ and on KB cells expressing FRα
T1 construct: whole, on cells

[2] = target: T2, ヒトFRβ(FRβ発現B300−19細胞) (human, UniProt P14207 17-230); test: Flow cytometry on B300-19 cells expressing FRβ, antibody at 1 μg/ml, APC anti-rat detection
T2 construct: whole, on cells; also called 葉酸リセプターβ

[3] = target: T2, ヒトFRβ(FRβ発現B300−19細胞); test: Flow cytometry on B300-19 cells expressing FRβ, in the presence of F(ab')2 No.5, APC-streptavidin detection

T2 sequence (P14207 17-230): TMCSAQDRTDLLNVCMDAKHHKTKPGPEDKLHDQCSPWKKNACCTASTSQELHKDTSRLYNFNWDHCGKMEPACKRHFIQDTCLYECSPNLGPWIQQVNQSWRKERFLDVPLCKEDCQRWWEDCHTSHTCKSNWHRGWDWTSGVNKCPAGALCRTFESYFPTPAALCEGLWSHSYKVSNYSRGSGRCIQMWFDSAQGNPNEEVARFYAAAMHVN
T1 sequence (P15328 25-234): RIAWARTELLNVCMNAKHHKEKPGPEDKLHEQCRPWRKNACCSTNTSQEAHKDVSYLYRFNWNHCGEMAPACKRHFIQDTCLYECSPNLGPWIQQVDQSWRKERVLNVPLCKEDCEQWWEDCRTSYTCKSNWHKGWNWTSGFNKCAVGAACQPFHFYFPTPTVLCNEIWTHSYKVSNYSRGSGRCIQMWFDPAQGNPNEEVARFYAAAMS

binding result [1]: binds
binding result [2]: binds
B1: 抗ヒトFRラットモノクローナル抗体(クローン名:No.5) (antibody, V domains shown)
VH: QVQLKESGPGLVQPSQTLSLTCTVSGFSLTSNSVSWVRQPPGKGLEWMGAIWSGGSTDYNSALKSRLSISKDTSKSQVFLKMNSLQTEDTAIYFCTRYYGYTYFAYWGQGVMVTVSS
VL: DIQMTQSPASLSASLEEIVTITCQASQDIGNWLAWYQQKPGKSPQLLIYDAIRLADGVPSRFSGSRSGTQYSLKISRLQVEDIGDYYCQQGQSNPRTFGGGTKLELK
notes: Rat monoclonal antibody purified from hybridoma supernatant; the constant regions are not; also called 抗体No.5

binding result [3]: binds
B2: ビオチン化No.2抗体 (antibody, V domains shown)
VH: QVQLQQSGAELAKPGSSVKISCKASGYTFTTYYINWIKQTTGQGLDYIGYINTRSGGTNYNEKFKGKATLTVDKSSSTAFMQLSSLTPDDSAVYYCAREGIIRGAEVMDAWGQGASVTVSS
VL: DIQMTQTPSSMPASLGERVTISCRASQGISNYLNRYQQKPDGTIKLLIYYTSNLQSGVPSRFSGSGSGTDYSLTISSLEPEDFAMYYCQQYDSSPPTFGGGTKLELK
modifications: biotinylated with Sulfo-NHS-LC-Biotin; sites not stated
notes: also called 検出抗体; ビオチン化抗FRβ抗体

binding result [2]: binds
B3: 抗ヒトFRβラットモノクローナル抗体(クローン名:No.2) (antibody, V domains shown)
VH: B2 VH
VL: B2 VL
notes: Rat monoclonal antibody purified from hybridoma supernatant; the constant regions are not; also called 抗体No.2
